Kd data for 1 molecule are collected here from PMC7953826 (Nature cell biology, 2020).

The assay concerns the target actin (rabbit skeletal muscle G-actin, polymerised to F-actin) (rabbit, UniProt P68135 1-377). Briefly: co-sedimentation.

B1: Drosophila dynamin shibire (Shi) (enzyme)
chain: MDSLITIVNKLQDAFTSLGVHMQLDLPQIAVVGGQSAGKSSVLENFVGKDFLPRGSGIVTRRPLILQLINGVTEYGEFLHIKGKKFSSFDEIRKEIEDETDRVTGSNKGISNIPINLRVYSPHVLNLTLIDLPGLTKVAIGDQPVDIEQQIKQMIFQFIRKETCLILAVTPANTDLANSDALKLAKEVDPQGVRTIGVITKLDLMDEGTDARDILENKLLPLRRGYIGVVNRSQKDIEGRKDIHQALAAERKFFLSHPSYRHMADRLGTPYLQRVLNQQLTNHIRDTLPGLRDKLQKQMLTLEKEVEEFKHFQPGDASIKTKAMLQMIQQLQSDFERTIEGSGSALVNTNELSGGAKINRIFHERLRFEIVKMACDEKELRREISFAIRNIHGIRVGLFTPDMAFEAIVKRQIALLKEPVIKCVDLVVQELSVVVRMCTAKMSRYPRLREETERIITTHVRQREHSCKEQILLLIDFELAYMNTNHEDFIGFANAQNKSENANKTGTRQLGNQVIRKGHMVIQNLGIMKGGSRPYWFVLTSESISWYKDEDEKEKKFMLPLDGLKLRDIEQGFMSMSRRVTFALFSPDGRNVYKDYKQLELSCETVEDVESWKASFLRAGVYPEKQETQENGDESASEESSSDPQLERQVETIRNLVDSYMKIVTKTTRDMVPKAIMMLIINNAKDFINGELLAHLYASGDQAQMMEESAESATRREEMLRMYRACKDALQIIGDVSMATVSSPLPPPVKNDWLPSGLDNPRLSPPSPGGVRGKPGPPAQSSLGGRNPPLPPSTGRPAPAIPNRPGGGAPPLPGGRPGGSLPPPMLPSRVSGAVGGAIVQQSGANRYVPESMRGQVNQAVGQAAINELSNAFSSRFK
In general, Kd refers to the concentration at which binding is half-saturated. A lower Kd goes with higher affinity. For B1, binding was characterised by a dissociation constant (Kd) of 190 ± 30 nM.
